Measurements published in patent US20160201097A1, “Materials and Methods of Producing 7-Carbon Monomers” (INVISTA North America S.á.r.l., priority 2014, published 2016).

B1: SEQ ID NO: 6: Segniliparus rotundus carboxylate reductase, N-terminal HIS tagged (protein, listed as Segniliparus rotundus)
chain: MTQSHTQGPQASAAHSRLARRAAELLATDPQAAATLPDPEVVRQATRPGLRLAERVDAILSGYADRPALGQRSFQTVKDPITGRSSVELLPTFDTITYRELRERATAIASDLAHHPQAPAKPGDFLASIGFISVDYVAIDIAGVFAGLTAVPLQTGATLATLTAITAETAPTLFAASIEHLPTAVDAVLATPSVRRLLVFDYRAGSDEDREAVEAAKRKIADAGSSVLVDVLDEVIARGKSAPKAPLPPATDAGDDSLSLLIYTSGSTGTPKGAMYPERNVAHFWGGVWAAAFDEDAAPPVPAINITFLPLSHVASRLSLMPTLARGGLMHFVAKSDLSTLFEDLKLARPTNLFLVPRVVEMLYQHYQSELDRRGVQDGTREAEAVKDDLRTGLLGGRILTAGFGSAPLSAELAGFIESLLQIHLVDGYGSTEAGPVWRDGYLVKPPVTDYKLIDVPELGYFSTDSPHPRGELAIKTQTILPGYYKRPETTAEVFDEDGFYLTGDVVAQIGPEQFAYVDRRKNVLKLSQGEFVTLAKLEAAYSSSPLVRQLFVYGSSERSYLLAVIVPTPDALKKFGVGEAAKAALGESLQKIARDEGLQSYEVPRDFIIETDPFTVENGLLSDARKSLRPKLKEHYGERLEAMYKELADGQANELRDIRRGVQQRPTLETVRRAAAAMLGASAAEIKPDAHFTDLGGDSLSALTFSNFLHDLFEVDVPVGVIVSAANTLGSVAEHIDAQLAGGRARPTFATVHGKGSTTIKASDLTLDKFIDEQTLEAAKHLPKPADPPRTVLLTGANGWLGRFLALEWLERLAPAGGKLITIVRGKDAAQAKARLDAAYESGDPKLAGHYQDLAATTLEVLAGDFSEPRLGLDEATWNRLADEVDFISHPGALVNHVLPYNQLFGPNVAGVAEIIKLAITTRIKPVTYLSTVAVAAGVEPSALDEDGDIRTVSAERSVDEGYANGYGNSKWGGEVLLREAHDRTGLPVRVFRSDMILAHQKYTGQVNATDQFTRLVQSLLATGLAPKSFYELDAQGNRQRAHYDGIPVDFTAESITTLGGDGLEGYRSYNVFNPHRDGVGLDEFVDWLIEAGHPITRIDDYDQWLSRFETSLRGLPESKRQASVLPLLHAFARPGPAVDGSPFRNTVFRTDVQKAKIGAEHDIPHLGKALVLKYADDIKQLGLL
modifications: N-terminal His tag
notes: Segniliparus rotundus carboxylate reductase, N-terminal HIS tagged
B2: SEQ ID NO: 7: Chromobacterium violaceum ω-transaminase, N-terminal HIS tagged (protein, listed as Chromobacterium violaceum)
chain: MQKQRTTSQWRELDAAHHLHPFTDTASLNQAGARVMTRGEGVYLWDSEGNKIIDGMAGLWCVNVGYGRKDFAEAARRQMEELPFYNTFFKTTHPAVVELSSLLAEVTPAGFDRVFYTNSGSESVDTMIRMVRRYWDVQGKPEKKTLIGRWNGYHGSTIGGASLGGMKYMHEQGDLPIPGMAHIEQPWWYKHGKDMTPDEFGVVAARWLEEKILEIGADKVAAFVGEPIQGAGGVIVPPATYWPEIERICRKYDVLLVADEVICGFGRTGEWFGHQHFGFQPDLFTAAKGLSSGYLPIGAVFVGKRVAEGLIAGGDFNHGFTYSGHPVCAAVAHANVAALRDEGIVQRVKDDIGPYMQKRWRETFSRFEHVDDVRGVGMVQAFTLVKNKAKRELFPDFGEIGTLCRDIFFRNNLIMRACGDHIVSAPPLVMTRAEVDEMLAVAERCLEEFEQTLKARGLA
modifications: N-terminal His tag
notes: Chromobacterium violaceum ω-transaminase, N-terminal HIS tagged

What was measured:
[1] = carboxylate reductase activity: pimelate semialdehyde to heptanedial (NADPH consumption, A340); format: biochemical; details: purified enzyme enhanced by sfp gene product, 2 mM pimelate semialdehyde, pH 7.5, room temperature, 20 min; against the empty vector control (FIG. 11)
Procedure: The N-terminal His-tagged carboxylate reductase of SEQ ID NO: 6 (see Example 3 and FIG. 6) was assayed using pimelate semialdehyde as substrate. The enzyme activity assay was performed in triplicate in a buffer composed of a final concentration of 50 mM HEPES buffer (pH=7.5), 2 mM pimelate semialdehyde, 10 mM MgCl2, 1 mM ATP and 1 mM NADPH. The enzyme activity assay reaction was initiated by adding purified carboxylate reductase and phosphopantetheine transferase or the empty vector control to the assay buffer containing the pimelate semialdehyde and then incubated at room temperature for 20 min. The consumption of NADPH was monitored by absorbance at 340 nm.

[2] = carboxylate reductase activity: pimelate to pimelate semialdehyde (NADPH consumption, A340); format: biochemical; details: purified enzyme enhanced by sfp gene product, 2 mM pimelate, pH 7.5, room temperature, 20 min; against the empty vector control (FIG. 8)
Procedure: A nucleotide sequence encoding a HIS-tag was added to the nucleic acid sequences from Segniliparus rugosus and Segniliparus rotundus that encode the carboxylate reductases of SEQ ID NOs: 4 (EFV11917.1) and 6 (ADG98140.1), respectively (see FIG. 6), such that N-terminal HIS tagged carboxylate reductases could be produced. Each of the modified genes was cloned into a pET Duet expression vector along with a sfp gene encoding a HIS-tagged phosphopantetheine transferase from Bacillus subtilis, both under the T7 promoter. Each expression vector was transformed into a BL21[DE3] E. coli host and the resulting recombinant E. coli strains were cultivated at 37° C. in a 250 mL shake flask culture containing 50 mL LB media and antibiotic selection pressure, with shaking at 230 rpm. Each culture was induced overnight at 37° C. using an auto-induction media.
The pellet from each induced shake flask culture was harvested via centrifugation. Each pellet was resuspended and lysed via sonication, and the cell debris was separated from the supernatant via centrifugation. […]
Enzyme activity assays (i.e., from pimelate to pimelate semialdehyde) were performed in triplicate in a buffer composed of a final concentration of 50 mM HEPES buffer (pH=7.5), 2 mM pimelate, 10 mM MgCl2, 1 mM ATP and 1 mM NADPH. […] The consumption of NADPH was monitored by absorbance at 340 nm. […]

[3] = carboxylate reductase activity: N7-acetyl-7-aminoheptanoate to N7-acetyl-7-aminoheptanal (NADPH consumption, A340); format: biochemical; details: purified enzyme enhanced by sfp gene product, 2 mM N7-acetyl-7-aminoheptanoate, pH 7.5, room temperature, 20 min; against the empty vector control (FIG. 10)
Procedure: The activity of each of the N-terminal His-tagged carboxylate reductases of SEQ ID NOs: 3, 5, and 6 (see Examples 2 and 3, and FIG. 6) for converting N7-acetyl-7-aminoheptanoate to N7-acetyl-7-aminoheptanal was assayed in triplicate in a buffer composed of a final concentration of 50 mM HEPES buffer (pH=7.5), 2 mM N7-acetyl-7-aminoheptanoate, 10 mM MgCl2, 1 mM ATP, and 1 mM NADPH. The assays were initiated by adding purified carboxylate reductase and phosphopantetheine transferase or the empty vector control to the assay buffer containing the N7-acetyl-7-aminoheptanoate then incubated at room temperature for 20 min. The consumption of NADPH was monitored by absorbance at 340 nm.

[4] = ω-transaminase activity: 7-aminoheptanol to 7-oxoheptanol (L-alanine formation by RP-HPLC); format: biochemical
Procedure: A nucleotide sequence encoding an N-terminal His-tag was added to the Chromobacterium violaceum, Pseudomonas syringae and Rhodobacter sphaeroides nucleic acids encoding the ω-transaminases of SEQ ID NOs: 7, 9 and 10, respectively (see FIG. 6) such that N-terminal HIS tagged ω-transaminases could be produced. The modified genes were cloned into a pET21a expression vector under the T7 promoter. Each expression vector was transformed into a BL21[DE3] E. coli host. Each resulting recombinant E. coli strain were cultivated at 37° C. in a 250 mL shake flask culture containing 50 mL LB media and antibiotic selection pressure, with shaking at 230 rpm. Each culture was induced overnight at 16° C. using 1 mM IPTG.
(§1) The pellet from each induced shake flask culture was harvested via centrifugation. Each pellet was resuspended and lysed via sonication. The cell debris was separated from the supernatant via centrifugation and the cell free extract was used immediately in enzyme activity assays.
Enzyme activity assays in the reverse direction (i.e., 7-aminoheptanol to 7-oxoheptanol) were performed in a buffer composed of a final concentration of 50 mM HEPES buffer (pH=7.5), 10 mM 7-aminoheptanol, 10 mM pyruvate, and […] pyridoxyl 5′ phosphate. Each enzyme activity assay reaction was initiated by adding cell free extract of the ω-transaminase gene product or the empty vector control to the assay buffer containing the 7-aminoheptanol and then incubated at 25° C. for 4 h, with shaking at 250 rpm. The formation of L-alanine was quantified via RP-HPLC.

[5] = ω-transaminase activity, forward direction: pimelate semialdehyde to 7-aminoheptanoate (pyruvate formation by RP-HPLC); format: biochemical; details: conclusion from reverse and forward assays of Example 1
Procedure: (§2) A nucleotide sequence encoding an N-terminal His-tag was added to the nucleic acid sequences from Chromobacterium violaceum, Pseudomonas syringae, Rhodobacter sphaeroides, and Vibrio fluvialis encoding the ω-transaminases of SEQ ID NOs: 7, 9, 10 and 12, respectively (see FIG. 6) such that N-terminal HIS tagged ω-transaminases could be produced. Each of the resulting modified genes was cloned into a pET21a expression vector under control of the T7 promoter and each expression vector was transformed into a BL21[DE3] E. coli host. The resulting recombinant E. coli strains were cultivated at 37° C. in a 250 mL shake flask culture containing 50 mL LB media and antibiotic selection pressure, with shaking at 230 rpm. Each culture was induced overnight at 16° C. using 1 mM IPTG.
as §1
Enzyme activity in the forward direction (i.e., pimelate semialdehyde to 7-aminoheptanoate) was confirmed for the transaminases of SEQ ID NO 9, SEQ ID NO 10 and SEQ ID NO 12. Enzyme activity assays were performed in a buffer composed of a final concentration of 50 mM HEPES buffer (pH=7.5), 10 mM pimelate semialdehyde, 10 mM L-alanine and 100 μM pyridoxyl 5′ phosphate. Each enzyme activity assay reaction was initiated by adding a cell free extract of the ω-transaminase gene product or the empty vector control to the assay buffer containing the pimelate semialdehyde and incubated at 25° C. for 4 h, with shaking at 250 rpm. The formation of pyruvate was quantified via RP-HPLC.

[6] = ω-transaminase activity, reverse direction: 7-aminoheptanoate to pimelate semialdehyde (L-alanine formation by RP-HPLC); format: biochemical; details: cell free extract, 10 mM 7-aminoheptanoate, 10 mM pyruvate, pH 7.5, 25° C., 4 h; against the empty vector control (FIG. 13)
Procedure: as §2, §1
Enzyme activity assays in the reverse direction (i.e., 7-aminoheptanoate to pimelate semialdehyde) were performed in a buffer composed of a final concentration of 50 mM HEPES buffer (pH=7.5), 10 mM 7-aminoheptanoate, 10 mM pyruvate and 100 μM pyridoxyl 5′ phosphate. Each enzyme activity assay reaction was initiated by adding cell free extract of the ω-transaminase gene product or the empty vector control to the assay buffer containing the 7-aminoheptanoate and incubated at 25° C. for 4 h, with shaking at 250 rpm. The formation of L-alanine from pyruvate was quantified via RP-HPLC.

[7] = from the literature; cited from earlier work

Row | acceptance of pimelate as substrate (NADPH consumption) [2] | Molecule | acceptance of pimelate semialdehyde as substrate, forming heptanedial (NADPH consumption) [1] | acceptance of N7-acetyl-7-aminoheptanoate as substrate (NADPH consumption) [3] | acceptance of 7-aminoheptanol as substrate (conversion of pyruvate to L-alanine) ([4]; cell free extract, 10 mM 7-aminoheptanol, 10 mM pyruvate, pH 7.5, 25° C., 4 h, against the empty vector control (FIG. 17)) | acceptance of 7-oxoheptanol as substrate forming 7-aminoheptanol ([4]; concluded from the reversibility of the ω-transaminase activity (Example 1)) | reversibility of ω-transaminase activity: pimelate semialdehyde accepted, 7-aminoheptanoate synthesized [5] | acceptance of 7-aminoheptanoate as substrate (conversion of pyruvate to L-alanine) [6] | activity on 7-aminoheptanoate (conversion to pimelate semialdehyde) [7]
1 | accepted pimelate as substrate | B1 | accepted pimelate semialdehyde as substrate | accepted N7-acetyl-7-aminoheptanoate as substrate |  |  |  |  | 
2 |  | B2 |  |  | accepted 7-aminoheptanol as substrate | accept 7-oxoheptanol as substrate and form 7-aminoheptanol | accepted pimelate semialdehyde as substrate and synthesized 7-aminoheptanoate as a reaction product | accepted 7-aminoheptanoate as substrate | demonstrated analogous activity accepting 7-aminoheptanoic acid as amino donor
